From patent US12227742B2, “Nucleic acid modifiers” (THE BROAD INSTITUTE, INC., priority 2017, dated 2025)

How the values were obtained:
[1] = test system: target DNA; test: SpCas9 DNA cleavage activity, mutational analysis; format: biochemical; settings: 5′-NGG PAM (5′-GGGCT)
[2] = test system: target DNA; test: SaCas9 DNA cleavage activity, mutational analysis; format: biochemical

Row | Molecule | cleavage of target DNA with 5′-NGG PAM [1] | DNA cleavage activity [2]
1 | St3Cas9: Streptococcus thermophilus CRISPR-3 Cas9 (protein, UniProt G3ECR1 1-1409, looked up) CRISPR-associated …: MLFNKCIIISINLDFSNKEKCMTKPYSIGLDIGTNSVGWAVITDNYKVPSKKMKVLGNTSKKYIKKNLLGVLLFDSGITAEGRRLKRTARRRYTRRRNRILYLQEIFSTEMATLDDAFFQRLDDSFLVPDDKRDSKYPIFGNLVEEKVYHDEFPTIYHLRKYLADSTKKADLRLVYLALAHMIKYRGHFLIEGEFNSKNNDIQKNFQDFLDTYNAIFESDLSLENSKQLEEIVKDKISKLEKKDRILKLFPGEKNSGIFSEFLKLIVGNQADFRKCFNLDEKASLHFSKESYDEDLETLLGYIGDDYSDVFLKAKKLYDAILLSGFLTVTDNETEAPLSSAMIKRYNEHKEDLALLKEYIRNISLKTYNEVFKDDTKNGYAGYIDGKTNQEDFYVYLKNLLAEFEGADYFLEKIDREDFLRKQRTFDNGSIPYQIHLQEMRAILDKQAKFYPFLAKNKERIEKILTFRIPYYVGPLARGNSDFAWSIRKRNEKITPWNFEDVIDKESSAEAFINRMTSFDLYLPEEKVLPKHSLLYETFNVYNELTKVRFIAESMRDYQFLDSKQKKDIVRLYFKDKRKVTDKDIIEYLHAIYGYDGIELKGIEKQFNSSLSTYHDLLNIINDKEFLDDSSNEAIIEEIIHTLTIFEDREMIKQRLSKFENIFDKSVLKKLSRRHYTGWGKLSAKLINGIRDEKSGNTILDYLIDDGISNRNFMQLIHDDALSFKKKIQKAQIIGDEDKGNIKEVVKSLPGSPAIKKGILQSIKIVDELVKVMGGRKPESIVVEMARENQYTNQGKSNSQQRLKRLEKSLKELGSKILKENIPAKLSKIDNNALQNDRLYLYYLQNGKDMYTGDDLDIDRLSNYDIDHIIPQAFLKDNSIDNKVLVSSASNRGKSDDFPSLEVVKKRKTFWYQLLKSKLISQRKFDNLTKAERGGLLPEDKAGFIQRQLVETRQITKHVARLLDEKFNNKKDENNRAVRTVKIITLKSTLVSQFRKDFELYKVREINDFHHAHDAYLNAVIASALLKKYPKLEPEFVYGDYPKYNSFRERKSATEKVYFYSNIMNIFKKSISLADGRVIERPLIEVNEETGESVWNKESDLATVRRVLSYPQVNVVKKVEEQNHGLDRGKPKGLFNANLSSKPKPNSNENLVGAKEYLDPKKYGGYAGISNSFAVLVKGTIEKGAKKKITNVLEFQGISILDRINYRKDKLNFLLEKGYKDIELIIELPKYSLFELSDGSRRMLASILSTNNKRGEIHKGNQIFLSQKFVKLLYHAKRISNTINENHRKYVENHKKEFEELFYYILEFNENYVGAKKNGKLLNSAFQSWQNHSIDELCSSFIGPTGSERKGLFELTSRGSAADFEFLGVKIPRYRDYTPSSLLKDATLIHQSVTGLYETRIDLAKLGEG | not | –
2 | SaCas9 T787A (protein, UniProt J7RUA5 1-1053, looked up, variant T787A) CRISPR-associated …: MKRNYILGLDIGITSVGYGIIDYETRDVIDAGVRLFKEANVENNEGRRSKRGARRLKRRRRHRIQRVKKLLFDYNLLTDHSELSGINPYEARVKGLSQKLSEEEFSAALLHLAKRRGVHNVNEVEEDTGNELSTKEQISRNSKALEEKYVAELQLERLKKDGEVRGSINRFKTSDYVKEAKQLLKVQKAYHQLDQSFIDTYIDLLETRRTYYEGPGEGSPFGWKDIKEWYEMLMGHCTYFPEELRSVKYAYNADLYNALNDLNNLVITRDENEKLEYYEKFQIIENVFKQKKKPTLKQIAKEILVNEEDIKGYRVTSTGKPEFTNLKVYHDIKDITARKEIIENAELLDQIAKILTIYQSSEDIQEELTNLNSELTQEEIEQISNLKGYTGTHNLSLKAINLILDELWHTNDNQIAIFNRLKLVPKKVDLSQQKEIPTTLVDDFILSPVVKRSFIQSIKVINAIIKKYGLPNDIIIELAREKNSKDAQKMINEMQKRNRQTNERIEEIIRTTGKENAKYLIEKIKLHDMQEGKCLYSLEAIPLEDLLNNPFNYEVDHIIPRSVSFDNSFNNKVLVKQEENSKKGNRTPFQYLSSSDSKISYETFKKHILNLAKGKGRISKTKKEYLLEERDINRFSVQKDFINRNLVDTRYATRGLMNLLRSYFRVNNLDVKVKSINGGFTSFLRRKWKFKKERNKGYKHHAEDALIIANADFIFKEWKKLDKAKKVMENQMFEEKQAESMPEIETEQEYKEIFITPHQIKHIKDFKDYKYSHRVDKKPNRELINDALYSTRKDDKGNTLIVNNLNGLYDKDNDKLKKLINKSPEKLLMYHHDPQTYQKLKLIMEQYGDEKNPLYKYYEETGNYLTKYSKKDNGPVIKKIKYYGNKLNAHLDITDDYPNSRNKVVKLSLKPYRFDVYLDNGVYKFVTVKNLDVIKKENYYEVNSKCYEEAKKLKKISNQAEFIASFYNNDLIKINGELYRVIGVNNDLLNRIEVNMIDITYREYLENMNDKRPPRIIKTIASKTQSIKKYSTDILGNLYEVKSKKHPQIIKKG | – | reduced DNA cleavage activity
